Results on two molecules are retold here after patent US20250043019A1 (Janssen / Centocor, published 2025).

A value given as a limit tells only on which side of the number the result lay.

In assay [1] the target is human CD3 on primary T cells (human, UniProt P07766 23-207). The assay can be described thus: cell-based or functional assay.
For assay [2], the target named is T1, human CD20 on the cell surface (human, UniProt P11836 1-297).
T1 sequence (looked up): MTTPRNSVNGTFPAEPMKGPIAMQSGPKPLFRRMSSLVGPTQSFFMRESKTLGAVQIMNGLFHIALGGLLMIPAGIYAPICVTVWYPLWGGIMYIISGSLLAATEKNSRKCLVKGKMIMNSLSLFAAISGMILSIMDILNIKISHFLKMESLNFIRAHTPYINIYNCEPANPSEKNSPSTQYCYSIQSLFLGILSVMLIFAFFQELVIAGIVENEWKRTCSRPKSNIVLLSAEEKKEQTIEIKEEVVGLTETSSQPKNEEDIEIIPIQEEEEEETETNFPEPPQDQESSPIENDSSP
The assay can be described thus: cell-based or functional assay.

Assay [3] deals with T2, cynomolgus monkey CD79b antigen (cynomolgus monkey).
T2 construct: also called cyno CD79b; CD9W1.001
The assay can be described thus: SPR Biacore 8k, cyno CD79b injected up to 3000 nM. The method, then:
General Protocol for SPR Affinity Assessment: Affinity assessment of the bispecific trispecific constructs against human CD79b were measure using recombinantly expressed extracellular domain of CD79b short and long isoforms (CD9W7.001 and CD9W8.001, respectively) by Surface Plasmon Resonance (SPR) using a Biacore 8k SPR system (Biacore) at 25° C. in HBSP+ buffer. Cross-reactivity of the same antibody panel was also assessed against cyno and mouse antigens (CD9W1.001 and CD9W105.001, respectively). Briefly, a C1 sensor chip was immobilized with anti-human Fc (target immobilization levels of >400 RU) using vendor recommended amino coupling protocol. […] The association and dissociation phases were measured for 2 or 3 minutes and 30 minutes, respectively.
The raw binding sensorgrams were processed using Biacore Insight software (Biacore) by double-referencing and the processed sensorgrams were analyzed for cross-reactivity and fitted to a 1:1 Langmuir model to obtain on-rates, off-rates and affinities.

Chain of human CD3 on primary T cells (P07766 23-207): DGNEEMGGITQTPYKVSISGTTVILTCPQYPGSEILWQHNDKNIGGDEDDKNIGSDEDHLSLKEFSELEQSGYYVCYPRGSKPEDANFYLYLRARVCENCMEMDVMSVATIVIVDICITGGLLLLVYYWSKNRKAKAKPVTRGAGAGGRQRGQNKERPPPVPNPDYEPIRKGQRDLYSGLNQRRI

B1: mosunetuzumab (bispecific antibody)
chain 1: not shown
chain 2: DIQMTQSPSSLSASVGDRVTITCRASSSVSYMHWYQQKPGKAPKPLIYAPSNLASGVPSRFSGSGSGTDFTLTISSLQPEDFATYYCQQWSFNPPTFGQGTKVEIKRTVAAPSVFIFPPSDEQLKSGTASVVCLLNNFYPREAKVQWKVDNALQSGNSQESVTEQDSKDSTYSLSSTLTLSKADYEKHKVYACEVTHQGLSSPVTKSFNRGEC
chain 3: EVQLVQSGAEVKKPGASVKVSCKASGYTFTNYYIHWVRQAPGQGLEWIGWIYPGDGNTKYNEKFKGRATLTADTSTSTAYLELSSLRSEDTAVYYCARDSYSNYYFDYWGQGTLVTVSSASTKGPSVFPLAPSSKSTSGGTAALGCLVKDYFPEPVTVSWNSGALTSGVHTFPAVLQSSGLYSLSSVVTVPSSSLGTQTYICNVNHKPSNTKVDKKVEPKSCDKTHTCPPCPAPELLGGPSVFLFPPKPKDTLMISRTPEVTCVVVDVSHEDPEVKFNWYVDGVEVHNAKTKPREEQYGSTYRVVSVLTVLHQDWLNGKEYKCKVSNKALPAPIEKTISKAKGQPREPQVYTLPPSREEMTKNQVSLSCAVKGFYPSDIAVEWESNGQPENNYKTTPPVLDSDGSFFLVSKLTVDKSRWQQGNVFSCSVMHEALHNHYTQKSLSLSPGK
chain 4: not shown
In the case of B1, in assay [1], the “EC50 of CD8 T-cell activation, CARNAVAL, E:T 1:1, 48 hours” value was found to be 0.053 nM; the “EC50 of CD8 T-cell activation, CARNAVAL, E:T 1:1, 72 hours” value came out at 0.013 nM; the “EC50 of CD8 T-cell activation, CARNAVAL, E:T 5:1, 48 hours” value turned out to be 0.038 nM; the “EC50 of CD8 T-cell activation, CARNAVAL, E:T 5:1, 72 hours” value stood at 0.021 nM. For the same molecule, in assay [1], the “EC50 of CD8 T-cell activation, HT, E:T 5:1, 48 hours” value is 0.148 nM; the “EC50 of CD8 T-cell activation, HT, E:T 5:1, 72 hours” value was 0.078 nM; the “EC50 of CD8 T-cell activation, JEKO-1, E:T 1:1, 48 hours” value was determined as 0.022 nM; the “EC50 of CD8 T-cell activation, JEKO-1, E:T 1:1, 72 hours” value stood at 0.021 nM. Besides, in assay [1], the “EC50 of CD8 T-cell activation, JEKO-1, E:T 5:1, 48 hours” value stood at 0.043 nM; the “EC50 of CD8 T-cell activation, JEKO-1, E:T 5:1, 72 hours” value stood at 0.019 nM; the “EC50 of CD8 T-cell activation, OCI-Ly10, E:T 1:1, 48 hours” value worked out at 0.045 nM; the “EC50 of CD8 T-cell activation, OCI-Ly10, E:T 1:1, 72 hours” value was determined as 0.035 nM. Also, in assay [1], the “EC50 of CD8 T-cell activation, OCI-Ly10, E:T 5:1, 48 hours” value is 0.256 nM; the “EC50 of CD8 T-cell activation, OCI-Ly10, E:T 5:1, 72 hours” value amounted to 0.12 nM; the “EC50 of CD8 T-cell activation, WILL-2, E:T 5:1, 48 hours” value turned out to be 1.24 nM; the “EC50 of CD8 T-cell activation, WILL-2, E:T 5:1, 72 hours” value worked out at 1.27 nM. In addition, in assay [2], the “EC50, autologous B-cell depletion, donor D198013” value amounted to 0.2 nM; the “EC50, autologous B-cell depletion, donor D221837” value is 0.5 nM; the “EC50, autologous B-cell depletion, donor D329465” value amounted to 0.2 nM.

B2: 79C3B601 CD79bxCD3 bispecific antibody (bispecific antibody, human IgG1, kappa, L234A L235A)
heavy: QVQLQESGPGLVKPSETLSLTCSVSGASISSFYWSWIRQPADEGLEWIGRISPSGKTNYIPSLKSRIIMSLDASKNQFSLRLNSVTAADTAMYYCARGEYSGTYSYSFDVWGQGTMVTVSSASTKGPSVFPLAPSSKSTSGGTAALGCLVKDYFPEPVTVSWNSGALTSGVHTFPAVLQSSGLYSLSSVVTVPSSSLGTQTYICNVNHKPSNTKVDKKVEPKSCDKTHTCPPCPAPEAAGGPSVFLFPPKPKDTLMISRTPEVTCVVVSVSHEDPEVKFNWYVDGVEVHNAKTKPREEQYNSTYRVVSVLTVLHQDWLNGKEYKCKVSNKALPAPIEKTISKAKGQPREPQVYTLPPSREEMTKNQVSLSCAVKGFYPSDIAVEWESNGQPENNYKTTPPVLDSDGSFFLVSKLTVDKSRWQQGNVFSCSVMHEALHNRFTQKSLSLSPGK
light: DIVMTQSPLSLSVTPGEPASISCRSSESLLDSEDGNTYLDWFLQKPGQSPQLLIYTLSYRASGVPDRFSGSGSDTDFTLHISSLEAEDVGLYYCMQRMEFPLTFGQGTKVEIKRTVAAPSVFIFPPSDEQLKSGTASVVCLLNNFYPREAKVQWKVDNALQSGNSQESVTEQDSKDSTYSLSSTLTLSKADYEKHKVYACEVTHQGLSSPVTKSFNRGEC
chain: EIVLTQSPATLSASPGERVTLSCSASSSVSYMNWYQQKPGQAPRRWIYDSSKLASGVPARFSGSGSGRDYTLTISSLEPEDFAVYYCQQWSRNPPTFGGGTKVEIKGGSEGKSSGSGSESKSTGGSQVQLVQSGAEVKKPGSSVKVSCKASGYTFTRSTMHWVKQAPGQGLEWIGYINPSSAYTNYNQKFQGRVTLTADKSTSTAYMELSSLRSEDTAVYYCASPQVHYDYAGFPYWGQGTLVTVSSEPKSSDKTHTCPPCPAPEAAGGPSVFLFPPKPKDTLMISRTPEVTCVVVSVSHEDPEVKFNWYVDGVEVHNAKTKPREEQYNSTYRVVSVLTVLHQDWLNGKEYKCKVSNKALPAPIEKTISKAKGQPREPQVYTLPPSREEMTKNQVSLWCLVKGFYPSDIAVEWESNGQPENNYKTTPPVLDSDGSFFLYSKLTVDKSRWQQGNVFSCSVMHEALHNHYTQKSLSLSPGK
notes: IgG1, knobs-in-holes, Fc-gamma-receptor-silencing mutations; HC1/LC = CD79b Fab arm, third chain = CD3 scFv-Fc arm; also called 79C3B601 bsAb; CD9B374 x CD3B2030-N106A
Take B2: the Kd – broadly, the free concentration of one partner at which half of the binding sites on the other are occupied at equilibrium, for simple one-to-one binding – in assay [3] is more than 3000 nM.
